# Source: the domain aggregation screens of Martell et al. (2025)
# Assay: soluble fraction after stress (log2 fold change); higher = more stays soluble; pooled small domains, quantitative proteomics
# Conditions: stress: pH 4
# Outline: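 Aggregation propensity is read out as the fold change in how much of each domain remains soluble after acid stress. The custom small-domain libraries were pooled, held at pH 4 and analysed with high-throughput quantitative proteomics. On the log2 scale used, higher values mean more of the domain stayed soluble.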
row,Sequence,soluble fraction (log2)
1,HMENSMDTDWDVSGVDPSQYRLLFSTLGAIAGVKDVGLNPDGLKIIHTPEALPAIKQAFDANNLKLKMRTN,-0.251
2,HMENSPLTHREAEVMRLMSEGKSNRAISEHLVISEKTVKNHVSSILQKMSVDDRTQAVLQAIKNGWVD,0.142
3,HMENTGFKDKKGNYIFDGDIVKDILGNIMKVEFKHFKWQLIPLNKTAFNMPMVDWLDLETETLNAEIIGN,-1.69
4,HMENTIESLLKAKGFNDIIVTVSDKQVDVVVSDKEIADNKRAQIEDVIKRKTGLEASAITITPA,-0.332
5,HMENVLFVNVLSMTVRELAEMMKIPVNKIIQDSFSKGIMMNPNQRLEYDNFAELAKKYGITVKI,-0.691
6,HMENVMLRNFAIQATEAGVIKLLEDQRTFVWGSNNKKFMTVPFDEHPYSAMAAFFKTDEGLEIYKSIEKKF,-1.43
7,HMENYQIETFVKFIEESTGEDGVAFEDLFQNFTSRPAVITMFLALLEALRRNSIRIFQKEEFSQILIYPK,-1.21
8,HMENYTYKYATSANVNIREEPNTDSTILGKTLLNTEFQVVEDVDGWSKITTEAGYAYIKSEYLSDTE,-0.392
9,HMEPDEQAVKALIAEIDKLSKEKLTLKHEKKLKELREIYDDFTEEEKKLVTNYDILVKMEKRMEVLKKQEG,0.19
10,HMEPDEYTVRQAFMKFDVGGEGRVPRDKLKALLETLGLELSAQQVRESEEQLDPEGTGFTSYGDFLMWWN,-1.33
11,HMEPEVSNTYEKVLGMHHFSSTRSHQLHDLVRQANALELSLGEIESIAQSAKDGAQVISDIKHWMEPNRQ,-0.185
12,HMEPEWVINTDGSNLNEILAIDEVDSRKTFSNDLQEVYRTFGIEAARQILVQEIDAVIESSGA,-0.675
13,HMEPFEQLLDRITSQTGKEPEEVVARMNELITERFDGNIRPEAALVIVAKRDNIQFMDLLDQLKQALL,-0.907
14,HMEPIAFDNMHNRGIKGTNDWTQYEITLPFSAEAKKIFVAGLLVGKGKAWFDKFEVFLDGKNITDVAQI,-0.0075
15,HMEPPPSYSALLKQISSGKVKELQLVPARREVIVTYPDGRSATVAILANDQQILRTAEAAGTPLLVK,0.326
16,HMEPQLVKSFDVQTELTYDQFLSKYPESHTLGRLLVQPEPIPFEPYKNIPGITPEKLLALHAKHLEAR,-0.169
17,HMEPQSRTAYRLIEAMIVTHELPPGSRISEASLSAKLGIGRTPIREALQRLSFEGTVKIVPRSGAFVSEI,0.183
18,HMEPREALDGLISERGETYASISRLLGRNSAYIQQFIKRGSPARLDQSDIALLALHFDVPVEMLGGKE,0.054
19,HMEPTIGTATVTSGSRLNMRSAKSTSASVVTRIPSGATVGVISYASDWSKVTYNGYTGYVSSPYISMNG,-0.108

row,Sequence,soluble fraction (log2)
1,HMEPVIELGDRTLPIEITRHRRARRLTLRLAADGSAVRITLPHWARSAEATAFAHARRDWLAAQLAK,0.108
2,HMEPVTETVYAMDTVNIRAAADQTSEKIGSVTVGTALTRTGTDGDWSIIDYNGTTGYVKSEFLSNTAPEV,-0.22
3,HMEQLIIQEELSGKRLDQLVSLLFPSLTRAHAQKLIKEGAVLVNEKPRKPAYAVMTGELLTVELPEPE,-0.755
4,HMEQNHYEVLGVSRDAIPEEIRKAYFEYARKLHPDANPDPGAAEQFMRIQTAYDVLSNPDRRHEYDGLLPP,-0.249
5,HMEQRREEFILLAKELLEKELRKQNLEVHENLKPDVLNDVAKRLGMVSMDDLLAAVGDGKITPGTVVSKIV,-0.389
6,HMEQVLNVAVRRGELIMSSAAEQTVRIYSSAGSMVWQGKVSASDVTVELPSGVYVVNGKKVV,-0.513
7,HMEQYFEDEELNDKFLEFLAMRKRVRKPVQTDRGMKMLLTSLHKLSGGDVGLMKQIIDQSLDNEWKKFVA,-1.12
8,HMERDIATKHEVNRTVEAYSDIVKTLNLPSHKINLVEISFFNILKRSKPSPRENSILLGLAQKIKLHLEKK,-0.473
9,HMERLKYSQVVDLFKGEQVKSFVLDESNQLKMELQDGSTVSYKLRSFEQFYLDLSDTVKEQKESGIITDYD,-1.72
10,HMERPPHELLSDREYQTMVMIASGRTLTQIAEEMSLSPKTVSVYRARLLEKMKLKNNAELTHYALKHKLV,-0.2
11,HMERPSLDQVLAHAKALGIAPARFVAYADGRWGTGWRLSPHGRARAWEELDRHRNDPLGYRDKLDVALQSG,0.181
12,HMESAQLIINVAGKVSNPGVYQLPQGSRVVDAIEAAGKQLKGVDISDINLARVLVDGEQILVGGV,-1.35
13,HMESAVDVFRSILKEKGVTEEEVRQVVAARGKYTLETPIDDYPNEFLYGYVIRYWDQIFDIIQQSREAK,-1.57
14,HMESEAKLGVAFNGKTRFDMTFPADADNKTIEEAVLADERAQKYLEGFQVAKVIIVPKRMVNIVLK,≥ 0.43
15,HMESEIYKKIEKSRLLELAFTKSQKGDLTGAYDLYYQAFTKYDVIADNQNRYFEDFISLIRRKQQQD,-0.822
16,HMESGLPLPRFVSLGADEVNLRTGPGLRYPVAWVFVRKALPVEIVAEFEQWRRVRDFEGAEGWVHKAML,-0.527
17,HMESGSSKINQDILETFTRGKKSLSISDISRLSGHHRHTVARYLDNLVSSGKLEMRQHGQKKKYYLSDIQP,0.0709
18,HMESILDDFPGLGAVRRAALLEHFGDIDRLRAASAVEITEVDGFGDVLARELHDFLHRPKPDA,-0.768
19,HMESKKKTYTVKSGDTLVSILKREGVPQELIFKDYLGLFLELNPQISDINKLRVGQEIVLPVPG,0.3
